Assay results reported in patent US20090311253A1 (AbbVie / Abbott, published 2009).
Values joined by “and” are separate entries in the source; they are usually repeats but may differ in a detail not shown here. Equal entries are not always repeated.

Legend:
[1] = target: Recombinant Human IL-9 (human, UniProt P15248 19-144); assay: Biacore SPR
Method: (§1) The BIACORE assay (Biacore, Inc, Piscataway, N.J.) determines the affinity of antibodies or DVD-Ig with kinetic measurements of on-rate and off-rate constants. Binding of antibodies or DVD-Ig to a target antigen (for example, a purified recombinant target antigen) is determined by surface plasmon resonance-based measurements with a BiacoreR 1000 or 3000 instrument (Biacore® AB, Uppsala, Sweden) using running HBS-EP (10 mM HEPES [pH 7.4], 150 mM NaCl, 3 mM EDTA, and 0.005% surfactant P20) at 25° C. All chemicals are obtained from Biacore® AB (Uppsala, Sweden) or otherwise from a different source as described in the text. For example, approximately 5000 RU of goat anti-mouse IgG, (Fcγ), fragment specific polyclonal antibody (Pierce Biotechnology Inc, Rockford, Ill.) diluted in 10 mM sodium acetate (pH 4.5) is directly immobilized across a CM5 research grade biosensor chip using a standard amine coupling kit according to manufacturer's instructions and procedures at 25 μg/ml. Unreacted moieties on the biosensor surface are blocked with ethanolamine. Modified carboxymethyl dextran surface in flowcell 2 and 4 is used as a reaction surface. Unmodified carboxymethyl dextran without goat anti-mouse IgG in flow cell 1 and 3 is used as the reference surface. For kinetic analysis, rate equations derived from the 1:1 Langmuir binding model are fitted simultaneously to association and dissociation phases of all eight injections (using global fit analysis) with the use of Biaevaluation 4.0.1 software. Purified antibodies or DVD-Ig are diluted in HEPES-buffered saline for capture across goat anti-mouse IgG specific reaction surfaces. Antibodies or DVD-Ig to be captured as a ligand (25 μg/ml) are injected over reaction matrices at a flow rate of 5 μl/min. The association and dissociation rate constants, kₒₙ (M⁻¹s⁻¹) and koff (s⁻¹) are determined under a continuous flow rate of 25 μl/min. Rate constants are derived by making kinetic binding measurements at different antigen concentrations ranging from […]. The equilibrium dissociation constant (M) of the reaction between antibodies or DVD-Igs and the target antigen is then calculated from the kinetic rate constants by the following formula: KD=koff/kₒₙ. Binding is recorded as a function of time and kinetic rate constants are calculated.

[2] = target: T1, IL-6R on cells (UniProt P08887 20-468, limits assumed); assay: flow cytometry on cells, 2 µg/mL
T1 construct: whole, on cells
T1 sequence (looked up): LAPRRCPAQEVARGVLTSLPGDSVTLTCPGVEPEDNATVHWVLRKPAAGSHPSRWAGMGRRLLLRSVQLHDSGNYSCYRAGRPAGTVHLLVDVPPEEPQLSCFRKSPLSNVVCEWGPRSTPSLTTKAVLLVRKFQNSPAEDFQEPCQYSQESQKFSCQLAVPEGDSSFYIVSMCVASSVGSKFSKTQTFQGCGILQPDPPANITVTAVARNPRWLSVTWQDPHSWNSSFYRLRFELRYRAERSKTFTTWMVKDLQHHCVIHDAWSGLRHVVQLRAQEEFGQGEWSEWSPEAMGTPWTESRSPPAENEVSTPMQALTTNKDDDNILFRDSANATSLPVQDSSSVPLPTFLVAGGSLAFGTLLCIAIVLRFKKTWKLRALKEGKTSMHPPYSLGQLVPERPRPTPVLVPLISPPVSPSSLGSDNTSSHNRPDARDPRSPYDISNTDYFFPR
Method: Stable cell lines overexpressing a cell-surface antigen of interest or human tumor cell lines were harvested from tissue culture flasks and resuspended in phosphate buffered saline (PBS) containing 5% fetal bovine serum (PBS/FBS). Prior to staining, human tumor cells were incubated on ice with (100 μl) human IgG at 5 μg/ml in PBS/FCS. 1−5×10⁵ cells were incubated with antibody or DVD-Ig (2 μg/mL) in PBS/FBS for 30-60 minutes on ice. […] After 30 minutes incubation on ice, cells were washed twice and resuspended in PBS/FBS. Fluorescence was measured using a Becton Dickinson FACSCalibur (Becton Dickinson, San Jose, Calif.).
The geometric mean is the n root of the multiplication product of n fluorescent signals (a1×a2×a3 . . . an). With log-transformed data the geometric mean is used to normalize the weighting of the data distribution.

[3] = target: T2, Recombinant Human IL-6 sR (human, UniProt P08887 20-358, limits assumed); assay: direct bind ELISA
T2 construct: domain: IL-6 sR; soluble receptor; also called IL-6R
T2 sequence (looked up): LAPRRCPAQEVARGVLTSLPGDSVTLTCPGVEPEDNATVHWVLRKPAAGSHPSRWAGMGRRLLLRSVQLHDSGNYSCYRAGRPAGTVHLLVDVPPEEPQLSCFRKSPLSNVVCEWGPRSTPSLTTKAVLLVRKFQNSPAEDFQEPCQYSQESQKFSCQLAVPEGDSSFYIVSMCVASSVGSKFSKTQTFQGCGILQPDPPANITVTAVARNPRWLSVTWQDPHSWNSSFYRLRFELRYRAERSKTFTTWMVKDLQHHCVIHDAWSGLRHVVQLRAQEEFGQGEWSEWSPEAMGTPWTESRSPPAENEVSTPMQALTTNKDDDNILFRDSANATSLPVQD
Method: (§2) Enzyme Linked Immunosorbent Assays to screen for antibodies that bind a desired target antigen were performed as follows. High bind ELISA plates (Corning Costar # 3369, Acton, Mass.) were coated with 100 μL/well of 10 μg/ml of desired target antigen (R&D Systems, Minneapolis, Minn.) or desired target antigen extra-cellular domain/FC fusion protein (R&D Systems, Minneapolis, Minn.) or monoclonal mouse anti-polyhistidine antibody (R&D Systems # MAB050, Minneapolis, Minn.) in phosphate buffered saline (10×PBS, Abbott Bioresearch Center, Media Prep# MPS-073, Worcester, Mass.) overnight at 4° C. Plates were washed four times with PBS containing 0.02% Tween 20. Plates were blocked by the addition of 300 μL/well blocking solution (non-fat dry milk powder, various retail suppliers, diluted to 2% in PBS) for ½ hour at room temperature. Plates were washed four times after blocking with PBS containing 0.02% Tween 20.
(§3) Plates were washed 4 times with PBS containing 0.02% Tween 20.
(§4) One hundred microliters of enhanced TMB solution (Neogen Corp. #308177, K Blue, Lexington, Ky.) was added to each well and incubated for 10 minutes at room temperature. The reaction was stopped by the addition of 50 μL 1N sulphuric acid. Plates were read spectrophotometrically at a wavelength of 450 nm.

[4] = target: T3, Recombinant Human TRANCE/RANKL/TNFSF 11 (human, UniProt O14788 69-317); assay: direct bind ELISA
T3 construct: extracellular domain
T3 sequence (looked up): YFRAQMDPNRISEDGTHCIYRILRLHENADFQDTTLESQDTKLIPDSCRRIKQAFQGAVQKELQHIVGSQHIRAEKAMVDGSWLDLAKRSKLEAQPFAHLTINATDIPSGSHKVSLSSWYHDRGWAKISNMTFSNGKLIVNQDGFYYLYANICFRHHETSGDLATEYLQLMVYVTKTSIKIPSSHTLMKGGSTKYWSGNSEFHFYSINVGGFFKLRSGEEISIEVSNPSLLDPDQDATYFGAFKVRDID
Method: as §2, §3, §4

[5] = target: T1, IL-6R on cells; assay: cell-based or functional assay
[6] = target: T2, Recombinant Human IL-6 sR; assay: Biacore SPR
Method: as §1

[7] = target: T4, Recombinant Human IL-13 (human, UniProt P35225 35-146, limits assumed); assay: cell-based or functional assay
[8] = target: T4, Recombinant Human IL-13; assay: Biacore SPR
Method: as §1

[9] = target: T5, Recombinant Human IL-1β (human, UniProt P01584 117-269); assay: direct bind ELISA
T5 construct: also called IL-1b; IL-1B
Method: as §2, §3, §4

[10] = target: T5, Recombinant Human IL-1β; assay: cell-based or functional assay
[11] = target: T5, Recombinant Human IL-1β; assay: Biacore SPR
Method: as §1

[12] = target: T3, Recombinant Human TRANCE/RANKL/TNFSF 11; assay: Biacore SPR
Method: as §1

[13] = target: T6, Recombinant Human IL-4 (human, UniProt P05112 25-153); assay: direct bind ELISA
T6 sequence (looked up): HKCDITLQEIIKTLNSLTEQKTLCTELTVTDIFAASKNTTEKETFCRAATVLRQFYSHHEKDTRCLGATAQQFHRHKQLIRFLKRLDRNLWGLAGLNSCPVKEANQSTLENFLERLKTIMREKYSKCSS
Method: as §2, §3, §4

[14] = target: T6, Recombinant Human IL-4; assay: Biacore SPR
Method: as §1

[15] = target: T6, Recombinant Human IL-4; assay: cell-based or functional assay

Recombinant Human IL-9, sequence (P15248 19-144 limits assumed): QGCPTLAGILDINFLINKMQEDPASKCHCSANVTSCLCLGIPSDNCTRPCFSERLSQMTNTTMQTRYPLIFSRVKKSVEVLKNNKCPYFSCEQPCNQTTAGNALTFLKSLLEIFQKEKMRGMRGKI
T4 sequence (P35225 35-146 limits assumed): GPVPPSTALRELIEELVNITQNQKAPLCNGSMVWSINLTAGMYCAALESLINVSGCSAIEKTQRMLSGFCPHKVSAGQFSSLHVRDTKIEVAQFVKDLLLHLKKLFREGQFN

B1: AB056 (antibody, human IgG1, kappa, V domains shown)
VH: QVQLQQSGAELMKPGASVKLSCKATGYTFTGSWIEWIKQRPGHGLEWIGQILPGSGSAYYNEKFKGKATFTADTSSKTVYIQLISLTTEDSAIYYCAREDNYGSSSLAYWGQGTLLTVSA
VL: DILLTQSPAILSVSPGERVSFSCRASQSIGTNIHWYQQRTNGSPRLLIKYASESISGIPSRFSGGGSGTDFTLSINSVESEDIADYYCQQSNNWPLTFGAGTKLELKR
notes: vectors V1 and V2
Kd [1]: 0.00993 nM
koff [1]: 5.62e-05 s⁻¹
kon [1]: 5.66e+06 M⁻¹ s⁻¹

B2: DVD129 (bispecific antibody, human IgG1, kappa)
heavy: not shown
light: DIQMTQSPSSLSASVGDRVTITCRASQDISSYLNWYQQKPGKAPKLLIYYTSRLHSGVPSRFSGSGSGTDFTFTISSLQPEDIATYYCQQGNTLPYTFGQGTKVEIKRTVAAPEIVLTQSPGTLSLSPGERATLSCRASQSVRGRYLAWYQQKPGQAPRLLIYGASSRATGIPDRFSGSGSGTDFTLTISRLEPEDFAVFYCQQYGSSPRTFGQGTKVEIKRTVAAPSVFIFPPSDEQLKSGTASVVCLLNNFYPREAKVQWKVDNALQSGNSQESVTEQDSKDSTYSLSSTLTLSKADYEKHKVYACEVTHQGLSSPVTKSFNRGEC
notes: vectors V1, V2; also called IL-6R and RANKL DVD-Ig
FACS Geometric Mean [2]: 8.43
EC50 [3]: 0.96 nM
EC50 [4]: 0.53 nM
IL-6 induced pSTAT3 in TF-1 cells, EC50 [5]: 0.16 nM

B3: AB054 (antibody, human IgG1, kappa, V domains shown)
VH: EVQLQESGPGLVRPSQTLSLTCTVSGYSITSDHAWSWVRQPPGRGLEWIGYISYSGITTYNPSLKSRVTMLRDTSKNQFSLRLSSVTAADTAVYYCARSLARTTAMDYWGQGSLVTVSS
VL: DIQMTQSPSSLSASVGDRVTITCRASQDISSYLNWYQQKPGKAPKLLIYYTSRLHSGVPSRFSGSGSGTDFTFTISSLQPEDIATYYCQQGNTLPYTFGQGTKVEIKR
notes: vectors V1 and V2; also called anti-IL-6R parent antibody
FACS Geometric Mean [2]: 5.94
EC50 [3]: 1.42 nM and 1.24 nM and 1.31 nM
IL-6 induced pSTAT3 in TF-1 cells, EC50 [5]: 0.07 nM
Kd [6]: 0.614 nM
koff [6]: 0.000206 s⁻¹
kon [6]: 336000 M⁻¹ s⁻¹

B4: AB051 (antibody, human IgG1, kappa, V domains shown)
VH: EVTLRESGPGLVKPTQTLTLTCTLYGFSLSTSDMGVDWIRQPPGKGLEWLAHIWWDDVKRYNPALKSRLTISKDTSKNQVVLKLTSVDPVDTATYYCARTVSSGYIYYAMDYWGQGTLVTVSS
VL: DIQMTQSPSSLSASVGDRVTISCRASQDIRNYLNWYQQKPGKAPKLLIFYTSKLHSGVPSRFSGSGSGTDYTLTISSLQPEDIATYYCQQGLTPPLTFGGGTKVEIKR
notes: vectors V1 and V2
IL-13 Neutralization Assay EC50 (A549 cells, hTARC) [7]: 0.1 nM
kon [8]: 2.14e+06 M⁻¹ s⁻¹

B5: DVD126 (bispecific antibody, human IgG1, kappa)
heavy: not shown
light: EIVLTQSPGTLSLSPGERATLSCRASQSVRGRYLAWYQQKPGQAPRLLIYGASSRATGIPDRFSGSGSGTDFTLTISRLEPEDFAVFYCQQYGSSPRTFGQGTKVEIKRTVAAPEIVLTQSPDFQSVTPKEKVTITCRASQSIGSSLHWYQQKPDQSPKLLIKYASQSFSGVPSRFSGSGSGTDFTLTINSLEAEDAAAYYCHQSSSLPFTFGPGTKVDIKRTVAAPSVFIFPPSDEQLKSGTASVVCLLNNFYPREAKVQWKVDNALQSGNSQESVTEQDSKDSTYSLSSTLTLSKADYEKHKVYACEVTHQGLSSPVTKSFNRGEC
notes: outer AB018, inner AB032; vectors V1, V2
EC50 [9]: 4460 nM
EC50 [4]: 0.4 nM
IL-1β Neutralization Assay EC50 (MRC5 cells, hIL-8) [10]: 4.29 nM
Kd [11]: < 0.117 nM
koff [11]: < 1e-06 s⁻¹
kon [11]: 8520 M⁻¹ s⁻¹
Kd [12]: < 0.00877 nM
koff [12]: < 1e-06 s⁻¹
kon [12]: 114000 M⁻¹ s⁻¹

B6: AB027 (antibody, human IgG1, kappa, V domains shown)
VH: QVTLRESGPALVKPTQTLTLTCTFSGFSLSTSGMGVSWIRQPPGKGLEWLAHIYWDDDKRYNPSLKSRLTISKDTSRNQVVLTMTNMDPVDTATYYCARRETVFYWYFDVWGRGTPVTVSS
VL: DIVLTQSPSSLSASVGDRVTITCKASQSVDYDGDSYMNWYQQKPGKAPKLLIYAASNLESGIPSRFSGSGSGTDFTFTISSLQPEDIATYYCQQSNEDPPTFGQGTKVEIKR
notes: vectors V1 and V2; also called anti-IL-4 parent antibody
EC50 [13]: 5.81 nM
Kd [14]: 0.0219 nM
koff [14]: 0.00013 s⁻¹
kon [14]: 5.92e+06 M⁻¹ s⁻¹
IL-4 Neutralization Assay EC50 (A549 cells, hTARC) [15]: 0.21 nM
